The text below walks through data of patent US10196657B2, “Methods of producing 7-carbon chemicals via methyl-ester shielded carbon chain elongation” (INVISTA North America S.á r.l., priority 2012, dated 2019).

The conditions of assay [1]: Haywood et al. 1988; Slater et al. 1998; cited from earlier work.
Assay [2] in a line: Carboxylate reductase activity assay, pimelate to pimelate semialdehyde (NADPH consumption). The conditions noted are these: purified enzyme enhanced by sfp gene product, 2 mM pimelate, room temperature, 20 min; against empty vector control; FIG. 10. In kind it is biochemical. The procedure:
A sequence encoding a HIS-tag was added to the genes from Segniliparus rugosus and Segniliparus rotundus that encode the carboxylate reductases of SEQ ID NOs: 4 and 7, respectively (see FIGS. 7C and 7F), such that N-terminal HIS tagged carboxylate reductases could be produced. Each of the modified genes was cloned into a pET Duet expression vector along with a sfp gene encoding a HIS-tagged phosphopantetheine transferase from Bacillus subtilis, both under the T7 promoter. Each expression vector was transformed into a BL21[DE3] E. coli host and the resulting recombinant E. coli strains were cultivated at 37° C. in a 250 mL shake flask culture containing 50 mL LB media and antibiotic selection pressure, with shaking at 230 rpm. Each culture was induced overnight at 37° C. using an auto-induction media.
The pellet from each induced shake flask culture was harvested via centrifugation. Each pellet was resuspended and lysed via sonication, and the cell debris was separated from the supernatant via centrifugation. […]
Enzyme activity assays (i.e., from pimelate to pimelate semialdehyde) were performed in triplicate in a buffer composed of a final concentration of 50 mM HEPES buffer (pH=7.5), 2 mM pimelate, 10 mM MgCl2, 1 mM ATP and 1 mM NADPH. […] The consumption of NADPH was monitored by absorbance at 340 nm.

Assay [3] is described as follows: ω-transaminase activity assay, reverse direction (7-aminoheptanoate to pimelate semialdehyde). It is filed as biochemical. As to conditions: cell free extract, 10 mM 7-aminoheptanoate, 10 mM pyruvate, 25° C., 4 h; against empty vector control; FIG. 15. The procedure: (§1) A sequence encoding an N-terminal His-tag was added to the genes from Chromobacterium violaceum, Pseudomonas syringae, Rhodobacter sphaeroides, and Vibrio Fluvialis encoding the ω-transaminases of SEQ ID NOs: 8, 10, 11 and 13, respectively (see FIGS. 7F and 7G) such that N-terminal HIS tagged ω-transaminases could be produced. Each of the resulting modified genes was cloned into a pET21a expression vector under control of the T7 promoter and each expression vector was transformed into a BL21[DE3] E. coli host. The resulting recombinant E. coli strains were cultivated at 37° C. in a 250 mL shake flask culture containing 50 mL LB media and antibiotic selection pressure, with shaking at 230 rpm. Each culture was induced overnight at 16° C. using 1 mM IPTG.
(§2) The pellet from each induced shake flask culture was harvested via centrifugation. Each pellet was resuspended and lysed via sonication. The cell debris was separated from the supernatant via centrifugation and the cell free extract was used immediately in enzyme activity assays.
Enzyme activity assays in the reverse direction (i.e., 7-aminoheptanoate to pimelate semialdehyde) were performed in a buffer composed of a final concentration of 50 mM HEPES buffer (pH=7.5), 10 mM 7-aminoheptanoate, 10 mM pyruvate and 100 μM pyridoxyl 5′ phosphate. Each enzyme activity assay reaction was initiated by adding cell free extract of the ω-transaminase gene product or the empty vector control to the assay buffer containing the 7-aminoheptanoate and incubated at 25° C. for 4 h, with shaking at 250 rpm. The formation of L-alanine from pyruvate was quantified via RP-HPLC.

A short description of assay [4]: ω-transaminase activity assay, forward direction (pimelate semialdehyde to 7-aminoheptanoate). In kind it is biochemical. The conditions noted are these: concluded from reversibility of the ω-transaminase activity. As for the experimental part: as §1, §2
Enzyme activity in the forward direction (i.e., pimelate semialdehyde to 7-aminoheptanoate) was confirmed for the transaminases of SEQ ID NO 10, SEQ ID NO 11 and SEQ ID NO 13. Enzyme activity assays were performed in a buffer composed of a final concentration of 50 mM HEPES buffer (pH=7.5), 10 mM pimelate semialdehyde, 10 mM L-alanine and 100 μM pyridoxyl 5′ phosphate. Each enzyme activity assay reaction was initiated by adding a cell free extract of the ω-transaminase gene product or the empty vector control to the assay buffer containing the pimelate semialdehyde and incubated at 25° C. for 4 h, with shaking at 250 rpm. The formation of pyruvate was quantified via RP-HPLC.

The nature of assay [5]: ω-transaminase activity assay, 7-aminoheptanol to 7-oxoheptanol. In kind it is biochemical. As for the experimental part: A nucleotide sequence encoding an N-terminal His-tag was added to the Chromobacterium violaceum, Pseudomonas syringae and Rhodobacter sphaeroides genes encoding the ω-transaminases of SEQ ID NOs: 8, 10 and 11, respectively (see FIGS. 7F and 7G) such that N-terminal HIS tagged ω-transaminases could be produced. The modified genes were cloned into a pET21a expression vector under the T7 promoter. Each expression vector was transformed into a BL21[DE3] E. coli host. Each resulting recombinant E. coli strain were cultivated at 37° C. in a 250 mL shake flask culture containing 50 mL LB media and antibiotic selection pressure, with shaking at 230 rpm. Each culture was induced overnight at 16° C. using 1 mM IPTG.
as §2
Enzyme activity assays in the reverse direction (i.e., 7-aminoheptanol to 7-oxoheptanol) were performed in a buffer composed of a final concentration of 50 mM HEPES buffer (pH=7.5), 10 mM 7-aminoheptanol, 10 mM pyruvate, and 100 μM pyridoxyl 5′ phosphate. Each enzyme activity assay reaction was initiated by adding cell free extract of the ω-transaminase gene product or the empty vector control to the assay buffer containing the 7-aminoheptanol and then incubated at 25° C. for 4 h, with shaking at 250 rpm. The formation of L-alanine was quantified via RP-HPLC.

For assay [6] the following is noted: Kaulmann et al., 2007; cited from earlier work.
For assay [7] the following is noted: Samsonova et al., 2003; cited from earlier work.

B1: β-ketothiolase encoded by bktB from Cupriavidus necator: β-ketothiolase classified under EC 2.3.1.16, gene product of bktB (protein, UniProt Q0KBP1 1-394, looked up)
Beta-ketothiolase BktB: MTREVVVVSGVRTAIGTFGGSLKDVAPAELGALVVREALARAQVSGDDVGHVVFGNVIQTEPRDMYLGRVAAVNGGVTINAPALTVNRLCGSGLQAIVSAAQTILLGDTDVAIGGGAESMSRAPYLAPAARWGARMGDAGLVDMMLGALHDPFHRIHMGVTAENVAKEYDISRAQQDEAALESHRRASAAIKAGYFKDQIVPVVSKGRKGDVTFDTDEHVRHDATIDDMTKLRPVFVKENGTVTAGNASGLNDAAAAVVMMERAEAERRGLKPLARLVSYGHAGVDPKAMGIGPVPATKIALERAGLQVSDLDVIEANEAFAAQACAVTKALGLDPAKVNPNGSGISLGHPIGATGALITVKALHELNRVQGRYALVTMCIGGGQGIAAIFERI
As for B1, in assay [1], the “substrates accepted, forming the CoA-activated C7 aliphatic backbone” value is “accepts propanoyl-CoA and pentanoyl-CoA as substrates”.

B2: SEQ ID NO 4: Segniliparus rugosus carboxylate reductase, Genbank Accession No. EFV11917.1 (protein, listed as Segniliparus rugosus)
chain: MGDGEERAKRFFQRIGELSATDPQFAAAAPDPAVVEAVSDPSLSFTRYLDTLMRGYAERPALAHRVGAGYETISYGELWARVGAIAAAWQADGLAPGDFVATVGFTSPDYVAVDLAAARSGLVSVPLQAGASLAQLVGILEETEPKVLAASASSLEGAVACALAAPSVQRLVVFDLRGPDASESAADERRGALADAEEQLARAGRAVVVETLADLAARGEALPEAPLFEPAEGEDPLALLIYTSGSTGAPKGAMYSQRLVSQLWGRTPVVPGMPNISLHYMPLSHSYGRAVLAGALSAGGTAHFTANSDLSTLFEDIALARPTFLALVPRVCEMLFQESQRGQDVAELRERVLGGRLLVAVCGSAPLSPEMRAFMEEVLGFPLLDGYGSTEALGVMRNGIIQRPPVIDYKLVDVPELGYRTTDKPYPRGELCIRSTSLISGYYKRPEITAEVFDAQGYYKTGDVMAEIAPDHLVYVDRSKNVLKLSQGEFVAVAKLEAAYGTSPYVKQIFVYGNSERSFLLAVVVPNAEVLGARDQEEAKPLIAASLQKIAKEAGLQSYEVPRDFLIETEPFTTQNGLLSEVGKLLRPKLKARYGEALEARYDEIAHGQADELRALRDGAGQRPVVETVVRAAVAISGSEGAEVGPEANFADLGGDSLSALSLANLLHDVFEVEVPVRIIIGPTASLAGIAKHIEAERAGASAPTAASVHGAGATRIRASELTLEKFLPEDLLAAAKGLPAADQVRTVLLTGANGWLGRFLALEQLERLARSGQDGGKLICLVRGKDAAAARRRIEETLGTDPALAARFAELAEGRLEVVPGDVGEPKFGLDDAAWDRLAEEVDVIVHPAALVNHVLPYHQLFGPNVVGTAEIIRLAITAKRKPVTYLSTVAVAAGVEPSSFEEDGDIRAVVPERPLGDGYANGYGNSKWAGEVLLREAHELVGLPVAVFRSDMILAHTRYTGQLNVPDQFTRLVLSLLATGIAPKSFYQQGAAGERQRAHYDGIPVDFTAEAITTLGAEPSWFDGGAGFRSFDVFNPHHDGVGLDEFVDWLIEAGHPISRIDDHKEWFARFETAVRGLPEAQRQHSLLPLLRAYSFPHPPVDGSVYPTGKFQGAVKAAQVGSDHDVPHLGKALIVKYADDLKALGLL
As to B2, in assay [2], the “acceptance of pimelate as substrate (NADPH consumption, absorbance at 340 nm)” value is on record as “accepted pimelate as substrate”.

B3: SEQ ID NO 8: Chromobacterium violaceum ω-transaminase, Genbank Accession No. AAQ59697.1 (protein, listed as Chromobacterium violaceum)
chain: MQKQRTTSQWRELDAAHHLHPFTDTASLNQAGARVMTRGEGVYLWDSEGNKIIDGMAGLWCVNVGYGRKDFAEAARRQMEELPFYNTFFKTTHPAVVELSSLLAEVTPAGFDRVFYTNSGSESVDTMIRMVRRYWDVQGKPEKKTLIGRWNGYHGSTIGGASLGGMKYMHEQGDLPIPGMAHIEQPWWYKHGKDMTPDEFGVVAARWLEEKILEIGADKVAAFVGEPIQGAGGVIVPPATYWPEIERICRKYDVLLVADEVICGFGRTGEWFGHQHFGFQPDLFTAAKGLSSGYLPIGAVFVGKRVAEGLIAGGDFNHGFTYSGHPVCAAVAHANVAALRDEGIVQRVKDDIGPYMQKRWRETFSRFEHVDDVRGVGMVQAFTLVKNKAKRELFPDFGEIGTLCRDIFFRNNLIMRACGDHIVSAPPLVMTRAEVDEMLAVAERCLEEFEQTLKARGLA
As to B3, the “acceptance of 7-aminoheptanoate as substrate (formation of L-alanine from pyruvate, RP-HPLC)” value in assay [3] is given as “accepted 7-aminoheptanote as substrate”. For the same molecule, in assay [4], the “acceptance of pimelate semialdehyde as substrate, synthesizing 7-aminoheptanoate (conclusion from confirmed reversibility)” value was “accepted pimelate semialdehyde as substrate”. Further, the “acceptance of 7-aminoheptanol as substrate (formation of L-alanine, RP-HPLC)” value in assay [5] (cell free extract, 10 mM 7-aminoheptanol, 10 mM pyruvate, 25° C., 4 h, against empty vector control, FIG. 19) is on record as “accepted 7-aminoheptanol as substrate”. Also, the “acceptance of 7-oxoheptanol as substrate, forming 7-aminoheptanol (concluded from reversibility)” value in assay [5] (concluded from reversibility of the ω-transaminase activity (Example 2)) is “accept 7-oxoheptanol as substrate”. Moreover, the “activity accepting 6-aminohexanoic acid as amino donor” value in assay [6] is “accepting 6-aminohexanoic acid as amino donor”.

B4: SEQ ID NO 12: Escherichia coli diamine ω-transaminase, Genbank Accession No. AAA57874.1 (protein, listed as Escherichia coli)
chain: MNRLPSSASALACSAHALNLIEKRTLDHEEMKALNREVIEYFKEHVNPGFLEYRKSVTAGGDYGAVEWQAGSLNTLVDTQGQEFIDCLGGFGIFNVGHRNPVVVSAVQNQLAKQPLHSQELLDPLRAMLAKTLAALTPGKLKYSFFCNSGTESVEAALKLAKAYQSPRGKFTFIATSGAFHGKSLGALSATAKSTFRKPFMPLLPGFRHVPFGNIEAMRTALNECKKTGDDVAAVILEPIQGEGGVILPPPGYLTAVRKLCDEFGALMILDEVQTGMGRTGKMFACEHENVQPDILCLAKALGGGVMPIGATIATEEVFSVLFDNPFLHTTTFGGNPLACAAALATINVLLEQNLPAQAEQKGDMLLDGFRQLAREYPDLVQEARGKGMLMAIEFVDNEIGYNFASEMFRQRVLVAGTLNNAKTIRIEPPLTLTIEQCELVIKAARKALAAMRVSVEEA
B4: the diamine substrate range entry in assay [7] is given as “accepts a broad range of diamine carbon chain length substrates”.
